{
  "source": "paper PMC6321638",
  "origin": "cited, not measured here",
  "target": "ALG-2 (Homo sapiens) (UniProt O75340)",
  "sequence (O75340 2-191)": "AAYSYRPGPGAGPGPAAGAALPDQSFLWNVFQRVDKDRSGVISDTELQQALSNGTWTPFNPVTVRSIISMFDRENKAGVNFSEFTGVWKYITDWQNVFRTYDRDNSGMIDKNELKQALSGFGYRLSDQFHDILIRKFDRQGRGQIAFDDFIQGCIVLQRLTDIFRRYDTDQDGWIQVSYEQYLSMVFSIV",
  "experiment": "SPR",
  "note": "pKd: −log10 of the molar value.",
  "data": [
    {"substance": "ALIX peptide", "values": [
      {"measurement": "pKd", "result": 6.70}
    ]}
  ]
}
